In one experiment the target is T1, 4H3858-bH.
T1 chain: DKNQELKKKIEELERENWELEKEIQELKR
Nature of the experiment: two-hybrid library CCNG1.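 Further: natural log of median RNA to DNA barcode read ratio; higher means stronger binding.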

Another experiment concerns the target T2, 4H3974-bH.
T2 chain: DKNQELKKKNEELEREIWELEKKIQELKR
Nature of the experiment: two-hybrid library CCNG1.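 Further: natural log of median RNA to DNA barcode read ratio; higher means stronger binding.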

For another experiment, the target named is T3, 4H570-bH.
T3 chain: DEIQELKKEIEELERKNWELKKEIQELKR
Nature of the experiment: two-hybrid library CCNG1.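 Further: natural log of median RNA to DNA barcode read ratio; higher means stronger binding.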

The next experiment concerns the target T4, 4H850-bH.
T4 chain: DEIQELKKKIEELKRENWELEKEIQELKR
Nature of the experiment: two-hybrid library CCNG1.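 Further: natural log of median RNA to DNA barcode read ratio; higher means stronger binding.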

The next experiment addresses T5, O1.
T5 chain: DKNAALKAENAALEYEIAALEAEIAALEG
The experiment can be described thus: two-hybrid library CCNG1.

The target in another experiment is T6, 4H1338-bA.
T6 chain: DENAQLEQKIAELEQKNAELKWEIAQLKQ
Nature of the experiment: two-hybrid library CCNG1.

The target in the next experiment is T7, 4H1348-bA.
T7 chain: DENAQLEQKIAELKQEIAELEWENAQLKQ
Nature of the experiment: two-hybrid library CCNG1.

A further experiment concerns the target T8, 4H1373-bA.
T8 chain: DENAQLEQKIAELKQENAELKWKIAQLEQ
Nature of the experiment: two-hybrid library CCNG1.

In a further experiment the target is T9, 4H1449-bA.
T9 chain: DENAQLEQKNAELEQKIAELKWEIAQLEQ
Nature of the experiment: two-hybrid library CCNG1.

For another experiment, the target named is T10, 4H1544-bA.
T10 chain: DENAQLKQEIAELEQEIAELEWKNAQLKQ
Nature of the experiment: two-hybrid library CCNG1.

The next experiment has as its target T11, 4H1710-bA.
T11 chain: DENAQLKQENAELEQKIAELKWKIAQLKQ
Nature of the experiment: two-hybrid library CCNG1.

In the next experiment the target is T12, 4H1899-bA.
T12 chain: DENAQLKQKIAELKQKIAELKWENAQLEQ
Nature of the experiment: two-hybrid library CCNG1.

The target in a further experiment is T13, 4H1985-bA.
T13 chain: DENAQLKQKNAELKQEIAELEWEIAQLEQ
The experiment can be described thus: two-hybrid library CCNG1.

The next experiment concerns the target T14, 4H3613-bA.
T14 chain: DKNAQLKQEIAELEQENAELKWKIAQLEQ
The experiment can be described thus: two-hybrid library CCNG1.

The target in the next experiment is T15, 4H3628-bA.
T15 chain: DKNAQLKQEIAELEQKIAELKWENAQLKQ
The experiment can be described thus: two-hybrid library CCNG1.

The next experiment has as its target T16, 4H3817-bA.
T16 chain: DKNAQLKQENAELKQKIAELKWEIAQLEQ
The experiment can be described thus: two-hybrid library CCNG1.

Another experiment has as its target T17, 4H3858-bA.
T17 chain: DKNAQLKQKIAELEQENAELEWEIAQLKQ
Nature of the experiment: two-hybrid library CCNG1.

Another experiment concerns the target T18, 4H3974-bA.
T18 chain: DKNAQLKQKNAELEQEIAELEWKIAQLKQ
Nature of the experiment: two-hybrid library CCNG1.

For a further experiment, the target named is T19, 4H570-bA.
T19 chain: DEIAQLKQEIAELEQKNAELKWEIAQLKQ
The experiment can be described thus: two-hybrid library CCNG1.

A further experiment deals with T20, 4H850-bA.
T20 chain: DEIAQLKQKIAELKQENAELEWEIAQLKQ
The experiment can be described thus: two-hybrid library CCNG1.

Another experiment deals with T21, 4H1082-AA.
T21 chain: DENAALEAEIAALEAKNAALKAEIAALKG
Nature of the experiment: two-hybrid library CCmax.

In another experiment the target is T22, 4H1103-AA.
T22 chain: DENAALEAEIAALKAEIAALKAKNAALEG
The experiment can be described thus: two-hybrid library CCmax. The conditions noted are these: mean of both orientations.

Another experiment concerns the target T23, 4H1198-AA.
T23 chain: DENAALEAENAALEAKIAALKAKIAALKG
Nature of the experiment: two-hybrid library CCmax. The conditions noted are these: mean of both orientations.

The target in a further experiment is T24, 4H1350-AA.
T24 chain: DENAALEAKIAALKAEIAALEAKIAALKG
Nature of the experiment: two-hybrid library CCmax. The conditions noted are these: mean of both orientations.

The next experiment addresses T25, 4H1405-AA.
T25 chain: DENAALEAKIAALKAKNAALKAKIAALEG
The experiment can be described thus: two-hybrid library CCmax. The conditions noted are these: mean of both orientations.

Another experiment addresses T26, 4H2211-AA.
T26 chain: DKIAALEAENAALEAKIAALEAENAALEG
Nature of the experiment: two-hybrid library CCmax. The conditions noted are these: mean of both orientations.

For a further experiment, the target named is T27, 4H2238-AA.
T27 chain: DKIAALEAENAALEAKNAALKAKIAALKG
The experiment can be described thus: two-hybrid library CCmax. The conditions noted are these: mean of both orientations.

Another experiment has as its target T28, 4H2513-AA.
T28 chain: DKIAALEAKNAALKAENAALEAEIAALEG
Nature of the experiment: two-hybrid library CCmax. The conditions noted are these: mean of both orientations.

The target in another experiment is T29, 4H2536-AA.
T29 chain: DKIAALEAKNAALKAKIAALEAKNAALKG
The experiment can be described thus: two-hybrid library CCmax. The conditions noted are these: mean of both orientations.

The target in another experiment is T30, 4H2608-AA.
T30 chain: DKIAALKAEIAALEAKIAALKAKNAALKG
Nature of the experiment: two-hybrid library CCmax. The conditions noted are these: mean of both orientations.

The next experiment addresses T31, 4H2614-AA.
T31 chain: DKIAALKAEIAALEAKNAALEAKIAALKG
Nature of the experiment: two-hybrid library CCmax. The conditions noted are these: mean of both orientations.

For another experiment, the target named is T32, 4H2726-AA.
T32 chain: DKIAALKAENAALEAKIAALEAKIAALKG
Nature of the experiment: two-hybrid library CCmax. The conditions noted are these: mean of both orientations.

A further experiment has as its target T33, 4H2935-AA.
T33 chain: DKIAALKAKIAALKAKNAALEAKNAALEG
The experiment can be described thus: two-hybrid library CCmax. The conditions noted are these: mean of both orientations.

Another experiment deals with T34, 4H327-AA.
T34 chain: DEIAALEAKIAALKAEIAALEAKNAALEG
Nature of the experiment: two-hybrid library CCmax. The conditions noted are these: mean of both orientations.

In another experiment the target is T35, 4H3605-AA.
T35 chain: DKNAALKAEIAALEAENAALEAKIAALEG
Nature of the experiment: two-hybrid library CCmax. The conditions noted are these: mean of both orientations.

Another experiment concerns the target T36, 4H3625-AA.
T36 chain: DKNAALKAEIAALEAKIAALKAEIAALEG
The experiment can be described thus: two-hybrid library CCmax. The conditions noted are these: mean of both orientations.

In another experiment the target is T37, 4H3664-AA.
T37 chain: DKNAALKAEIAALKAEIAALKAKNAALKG
Nature of the experiment: two-hybrid library CCmax. The conditions noted are these: mean of both orientations.

Another experiment has as its target T38, 4H369-AA.
T38 chain: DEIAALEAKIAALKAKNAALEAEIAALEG
The experiment can be described thus: two-hybrid library CCmax. The conditions noted are these: mean of both orientations.

For another experiment, the target named is T39, 4H3922-AA.
T39 chain: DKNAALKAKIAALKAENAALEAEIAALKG
Nature of the experiment: two-hybrid library CCmax. The conditions noted are these: mean of both orientations.

The target of a further experiment is T40, 4H4033-AA.
T40 chain: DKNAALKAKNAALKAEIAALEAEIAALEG
Nature of the experiment: two-hybrid library CCmax. The conditions noted are these: mean of both orientations.

For a further experiment, the target named is T41, 4H481-AA.
T41 chain: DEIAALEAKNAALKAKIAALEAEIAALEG
Nature of the experiment: two-hybrid library CCmax. The conditions noted are these: mean of both orientations.

For a further experiment, the target named is T42, 4H55-AA.
T42 chain: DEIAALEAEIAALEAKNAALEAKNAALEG
The experiment can be described thus: two-hybrid library CCmax. The conditions noted are these: mean of both orientations.

In the next experiment the target is T43, 4H629-AA.
T43 chain: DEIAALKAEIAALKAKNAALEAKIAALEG
Nature of the experiment: two-hybrid library CCmax.

Another experiment addresses T44, 4H662-AA.
T44 chain: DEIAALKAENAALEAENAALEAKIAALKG
The experiment can be described thus: two-hybrid library CCmax. The conditions noted are these: mean of both orientations.

B1: 4H3858-bH (peptide)
chain: DKNQELKKKIEELERENWELEKEIQELKR
For the molecule B1, the interaction score is 1.05 with 4H3858-bH; -0.677 with 4H3974-bH; 1.32 in the experiment with 4H570-bH; -0.759 with 4H850-bH; -0.992 with O1.

B2: 4H1338-bA (peptide)
chain: DENAQLEQKIAELEQKNAELKWEIAQLKQ
As for B2, the interaction score with 4H1338-bA was -0.0383; in the experiment with 4H1348-bA, -0.532; with 4H1373-bA, -0.825; with 4H1449-bA, -0.906; with 4H1544-bA, -0.0537; with 4H1710-bA it was -1.12. In addition, the interaction score with 4H1899-bA was -0.794; with 4H1985-bA, 0.203; with 4H3613-bA, 0.511; with 4H3628-bA, -0.607; with 4H3817-bA, -0.561; with 4H3858-bA, 1.87. In addition, the interaction score with 4H3974-bA was 1.12; with 4H570-bA it was -0.499; with 4H850-bA, 1.4.

B3: 4H1082-AA (peptide)
chain: DENAALEAEIAALEAKNAALKAEIAALKG
As for B3, the interaction score with 4H1082-AA was -0.277; in the experiment with 4H1103-AA, -1.29; with 4H1198-AA it was -0.589; in the experiment with 4H1350-AA, 0.509; in the experiment with 4H1405-AA it was -1.13; in the experiment with 4H2211-AA it was -0.726. Further, the interaction score with 4H2238-AA was -1.2; with 4H2513-AA, -0.261; with 4H2536-AA, -1.58; with 4H2608-AA, 1.21; with 4H2614-AA, 0.814; with 4H2726-AA, -0.0246. In addition, the interaction score in the experiment with 4H2935-AA was -1.5; with 4H327-AA it was -0.938; with 4H3605-AA, 1.35; with 4H3625-AA, -0.987; in the experiment with 4H3664-AA, -1.83; with 4H369-AA it was -0.173. Moreover, the interaction score with 4H3922-AA was 2.18; with 4H4033-AA it was -0.637; with 4H481-AA, -1.09; with 4H55-AA it was -1.89; in the experiment with 4H629-AA, -0.619; in the experiment with 4H662-AA, -0.82.

For the origin of these results see PMC10397247.
